The record followed here is patent US20220226425A1 (RHYTHM PHARMACEUTICALS, published 2022).

Bridges are numbered along the chain shown (N, C = ends). [ ]: non-standard residue; d: D form. Pen = CC(C)(S)[C@H](N)C(=O)O; hCys = N[C@@H](CCS)C(=O)O; Dap = NC[C@H](N)C(=O)O

Among the targets are melanocortin 1 receptor (human, UniProt Q01726 1-317); melanocortin 5 receptor (human, UniProt P33032 1-325); melanocortin 3 receptor (human, UniProt P41968 1-323); melanocortin-4 receptor (human, UniProt P32245 1-332).
Common to all, as to assay: cell-based or functional assay

melanocortin 3 receptor, sequence (P41968 whole entry): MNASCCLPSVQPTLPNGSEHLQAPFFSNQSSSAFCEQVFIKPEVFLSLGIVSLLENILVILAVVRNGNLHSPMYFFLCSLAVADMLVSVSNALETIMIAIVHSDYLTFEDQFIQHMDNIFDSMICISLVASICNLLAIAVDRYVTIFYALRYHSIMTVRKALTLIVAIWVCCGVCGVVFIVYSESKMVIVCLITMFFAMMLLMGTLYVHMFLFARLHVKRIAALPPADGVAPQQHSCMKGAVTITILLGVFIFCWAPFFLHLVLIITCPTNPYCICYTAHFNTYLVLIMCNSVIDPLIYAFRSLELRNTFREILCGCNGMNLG
melanocortin-4 receptor, sequence (P32245 whole entry): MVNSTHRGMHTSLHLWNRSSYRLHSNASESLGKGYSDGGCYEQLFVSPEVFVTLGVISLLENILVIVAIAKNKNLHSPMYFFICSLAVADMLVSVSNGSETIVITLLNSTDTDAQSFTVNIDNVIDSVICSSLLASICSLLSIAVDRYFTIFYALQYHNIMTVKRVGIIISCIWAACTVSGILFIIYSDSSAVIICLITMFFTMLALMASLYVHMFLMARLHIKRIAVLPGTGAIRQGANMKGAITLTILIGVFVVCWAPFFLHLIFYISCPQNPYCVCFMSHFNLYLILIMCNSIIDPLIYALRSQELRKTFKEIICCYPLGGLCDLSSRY
melanocortin 1 receptor, sequence (Q01726 whole entry): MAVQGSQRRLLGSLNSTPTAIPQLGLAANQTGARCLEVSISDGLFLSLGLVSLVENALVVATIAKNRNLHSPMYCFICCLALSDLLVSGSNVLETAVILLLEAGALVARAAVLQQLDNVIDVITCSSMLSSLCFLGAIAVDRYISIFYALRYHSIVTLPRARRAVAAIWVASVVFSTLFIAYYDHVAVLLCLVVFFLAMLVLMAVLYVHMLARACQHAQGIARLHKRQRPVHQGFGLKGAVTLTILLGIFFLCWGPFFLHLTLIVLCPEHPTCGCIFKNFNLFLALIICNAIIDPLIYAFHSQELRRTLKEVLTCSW
melanocortin 5 receptor, sequence (P33032 whole entry): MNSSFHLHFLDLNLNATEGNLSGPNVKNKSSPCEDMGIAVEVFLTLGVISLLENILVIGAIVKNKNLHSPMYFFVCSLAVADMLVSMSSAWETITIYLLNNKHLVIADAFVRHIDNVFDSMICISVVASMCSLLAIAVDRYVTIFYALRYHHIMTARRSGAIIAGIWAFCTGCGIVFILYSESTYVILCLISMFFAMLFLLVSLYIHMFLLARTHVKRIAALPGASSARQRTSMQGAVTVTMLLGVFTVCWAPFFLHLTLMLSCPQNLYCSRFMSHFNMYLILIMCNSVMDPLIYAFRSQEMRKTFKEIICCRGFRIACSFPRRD

B1: 001574C, Ac-Arg-(hCys-Thr-D-Phe-Arg-Trp-Pen)-NH2 (peptide)
peptide: Ac-R[hCys]T[dF]RW[Pen]-NH2
modifications: disulfide 2-7
SMILES: CC(=O)N[C@@H](CCCNC(=N)N)C(=O)N[C@H]1CCSSC(C)(C)[C@@H](C(N)=O)NC(=O)[C@H](Cc2c[nH]c3ccccc23)NC(=O)[C@H](CCCNC(=N)N)NC(=O)[C@@H](Cc2ccccc2)NC(=O)[C@H]([C@@H](C)O)NC1=O
Turning to B1, the “EC-50 (nM), cAMP accumulation” value with melanocortin 1 receptor was 516 nM; with melanocortin 5 receptor, 2050 nM; with melanocortin 3 receptor it was more than 3000 nM; with melanocortin-4 receptor it was 1.11 nM. Also, the “Selectivity Ratio MC4R/MC3R (of EC-50 values)” value (from here on “Selectivity Ratio MC4R/MC3R”) with melanocortin 3 receptor was more than 2710.

For the molecule Ac-R[hCys]N[dF]RW[Pen]-NH2 (disulfide 2-7) [001554C, Ac-Arg-(hCys-Asn-D-Phe-Arg-Trp-Pen)-NH2], the “EC-50 (nM), cAMP accumulation” value with melanocortin 1 receptor is 235 nM; with melanocortin 5 receptor, 735 nM; with melanocortin 3 receptor, more than 3000 nM; with melanocortin-4 receptor, 1.6 nM. Further, the “Selectivity Ratio MC4R/MC3R” value with melanocortin 3 receptor is more than 1870.

B2: 001576C, Ac-Arg-(Glu-Gln-D-Phe-Arg-Trp-Dpr)-NH2 (peptide)
peptide: Ac-REQ[dF]RW[Dap]-NH2
modifications: lactam 2-7
SMILES: CC(=O)N[C@@H](CCCNC(=N)N)C(=O)N[C@H]1CCC(=O)NC[C@@H](C(N)=O)NC(=O)[C@H](Cc2c[nH]c3ccccc23)NC(=O)[C@H](CCCNC(=N)N)NC(=O)[C@@H](Cc2ccccc2)NC(=O)[C@H](CCC(N)=O)NC1=O
B2: the “EC-50 (nM), cAMP accumulation” value in the test with melanocortin 1 receptor turned out to be 23.6 nM; with melanocortin 5 receptor it was 67.3 nM; with melanocortin 3 receptor, 1.16 nM; with melanocortin-4 receptor, 0.66 nM. In the test with melanocortin 3 receptor, the “Selectivity Ratio MC4R/MC3R” value came out at 1.75.

B3: 001556C, Ac-Arg-(hCys-Ser-D-Phe-Arg-Trp-Pen)-NH2 (peptide)
peptide: Ac-R[hCys]S[dF]RW[Pen]-NH2
modifications: disulfide 2-7
SMILES: CC(=O)N[C@@H](CCCNC(=N)N)C(=O)N[C@H]1CCSSC(C)(C)[C@@H](C(N)=O)NC(=O)[C@H](Cc2c[nH]c3ccccc23)NC(=O)[C@H](CCCNC(=N)N)NC(=O)[C@@H](Cc2ccccc2)NC(=O)[C@H](CO)NC1=O
For the molecule B3, the “EC-50 (nM), cAMP accumulation” value is 229 nM in the test with melanocortin 1 receptor, 1700 nM in the test with melanocortin 5 receptor, more than 3000 nM with melanocortin 3 receptor and 1.86 nM in the test with melanocortin-4 receptor. Further, in the test with melanocortin 3 receptor, the “Selectivity Ratio MC4R/MC3R” value was more than 1620.

As to Ac-R[hCys]Q[dF]RW[Pen]-NH2 (disulfide 2-7) [001555C, Ac-Arg-(hCys-Gln-D-Phe-Arg-Trp-Pen)-NH2], the “EC-50 (nM), cAMP accumulation” value in the test with melanocortin 1 receptor turned out to be 47.5 nM; with melanocortin 5 receptor it was 124 nM; with melanocortin 3 receptor, 0.52 nM; with melanocortin-4 receptor it was 0.19 nM. Besides, in the test with melanocortin 3 receptor, the “Selectivity Ratio MC4R/MC3R” value amounted to 2.68.
